Experimental findings from patent publication US20050176069A1 (PHARMACIA AND UPJOHN, published 2005) are described below.

In one test the target is T1, CEGPCR4 (C. elegans).
T1 chain: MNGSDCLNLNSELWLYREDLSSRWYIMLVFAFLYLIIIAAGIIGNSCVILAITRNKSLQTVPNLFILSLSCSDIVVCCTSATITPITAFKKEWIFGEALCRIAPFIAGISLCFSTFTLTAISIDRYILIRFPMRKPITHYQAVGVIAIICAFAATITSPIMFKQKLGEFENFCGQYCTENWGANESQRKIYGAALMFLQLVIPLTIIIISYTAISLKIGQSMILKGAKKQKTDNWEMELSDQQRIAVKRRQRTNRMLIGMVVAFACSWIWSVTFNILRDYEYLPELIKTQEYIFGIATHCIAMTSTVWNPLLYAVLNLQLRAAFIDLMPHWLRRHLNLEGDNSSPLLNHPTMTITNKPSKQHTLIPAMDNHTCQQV
As to the kind of experiment: competition binding assay, CEGPCR4/CHO membranes, vs [125I-Y]DVPGVLRF-NH2.

A further test addresses T2, CEGPCR12h (C. elegans).
T2 chain: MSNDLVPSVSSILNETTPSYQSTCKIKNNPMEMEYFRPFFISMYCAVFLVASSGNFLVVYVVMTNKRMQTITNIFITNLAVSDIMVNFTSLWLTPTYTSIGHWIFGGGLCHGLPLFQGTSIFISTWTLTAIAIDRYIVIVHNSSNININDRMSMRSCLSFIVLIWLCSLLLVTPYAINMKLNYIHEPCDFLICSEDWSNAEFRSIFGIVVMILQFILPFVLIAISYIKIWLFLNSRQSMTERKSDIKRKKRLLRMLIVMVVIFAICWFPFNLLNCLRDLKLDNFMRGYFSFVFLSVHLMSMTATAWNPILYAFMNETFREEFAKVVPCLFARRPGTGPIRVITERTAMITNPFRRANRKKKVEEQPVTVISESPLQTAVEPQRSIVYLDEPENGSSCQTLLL
In words: cell-based or functional assay.

A further test deals with T3, CEGPCR3 (C. elegans, UniProt P90745 1-376).
T3 sequence: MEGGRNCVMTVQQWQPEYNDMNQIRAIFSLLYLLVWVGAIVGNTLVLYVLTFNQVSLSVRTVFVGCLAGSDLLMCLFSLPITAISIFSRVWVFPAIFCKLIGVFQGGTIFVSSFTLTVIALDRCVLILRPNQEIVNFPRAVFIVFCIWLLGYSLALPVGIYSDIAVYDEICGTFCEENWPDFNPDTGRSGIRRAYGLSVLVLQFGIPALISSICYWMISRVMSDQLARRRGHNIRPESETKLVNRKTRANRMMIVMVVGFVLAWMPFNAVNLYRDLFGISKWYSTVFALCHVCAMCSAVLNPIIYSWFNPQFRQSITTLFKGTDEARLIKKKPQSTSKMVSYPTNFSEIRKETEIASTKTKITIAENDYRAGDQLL
In words: cell-based or functional assay.

Another test has as its target T4, CEGPCR4 (C. elegans).
T4 construct: Expressed in CHO cells
T4 chain: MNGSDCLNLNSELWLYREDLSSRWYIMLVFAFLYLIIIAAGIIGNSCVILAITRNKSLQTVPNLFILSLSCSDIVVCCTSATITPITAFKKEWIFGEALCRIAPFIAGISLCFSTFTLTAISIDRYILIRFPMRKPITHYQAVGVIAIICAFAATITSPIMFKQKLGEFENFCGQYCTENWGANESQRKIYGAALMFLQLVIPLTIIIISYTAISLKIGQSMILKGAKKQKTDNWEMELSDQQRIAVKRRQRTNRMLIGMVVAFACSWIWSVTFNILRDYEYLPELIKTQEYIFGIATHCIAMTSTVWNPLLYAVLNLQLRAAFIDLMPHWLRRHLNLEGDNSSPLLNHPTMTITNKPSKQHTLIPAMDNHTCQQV
In words: competition binding assay, CEGPCR4/CHO membranes, vs [125I-Y]DVPGVLRF-NH2.

Test [1] has as its target T5, CEGPCR7 (C. elegans), Q18534.
T5 chain: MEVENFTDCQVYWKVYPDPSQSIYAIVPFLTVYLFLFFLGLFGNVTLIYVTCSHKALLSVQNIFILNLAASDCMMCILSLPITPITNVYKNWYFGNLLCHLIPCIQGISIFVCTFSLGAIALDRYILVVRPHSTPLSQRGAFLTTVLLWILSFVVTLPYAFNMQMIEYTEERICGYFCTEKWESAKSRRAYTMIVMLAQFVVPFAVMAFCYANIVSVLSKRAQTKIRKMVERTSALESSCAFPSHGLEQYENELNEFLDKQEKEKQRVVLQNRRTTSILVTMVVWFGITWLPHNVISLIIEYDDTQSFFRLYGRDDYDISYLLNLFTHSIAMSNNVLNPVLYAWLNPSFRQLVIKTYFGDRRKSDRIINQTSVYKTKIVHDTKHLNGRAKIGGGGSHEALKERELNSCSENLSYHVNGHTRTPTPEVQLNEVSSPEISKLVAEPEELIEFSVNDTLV
As to the kind of experiment: cell-based or functional assay.

The target of the next test is T6, CEGPCR16 (C. elegans).
T6 chain: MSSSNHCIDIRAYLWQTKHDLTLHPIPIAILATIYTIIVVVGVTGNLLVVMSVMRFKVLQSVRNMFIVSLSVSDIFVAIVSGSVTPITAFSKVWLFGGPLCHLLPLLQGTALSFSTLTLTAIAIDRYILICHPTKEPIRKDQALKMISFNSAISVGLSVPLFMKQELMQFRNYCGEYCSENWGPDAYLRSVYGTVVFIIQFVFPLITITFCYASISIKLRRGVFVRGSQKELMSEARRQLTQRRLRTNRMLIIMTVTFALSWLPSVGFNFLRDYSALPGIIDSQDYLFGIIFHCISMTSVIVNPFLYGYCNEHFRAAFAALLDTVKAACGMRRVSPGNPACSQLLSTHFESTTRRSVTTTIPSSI
In words: cell-based or functional assay.

Like-named read-outs stand apart in the source and are kept apart here. Where no end group is shown, it is not given here.

For the molecule PDVDHVFLRF-NH2 […-NH2 (SchistoFLRFa)], the IC50 in the test with CEGPCR4 (C. elegans) is 60000 to 900000 nM. For the same molecule, the EC50, [35S]GTPγS assay with CEGPCR12h (C. elegans) came out at 330 nM.

Turning to GPSGPLRF-NH2 [GPSGPLRF-NH2], in the test with CEGPCR3, the “EC50, GTPγS assay” value is 422 nM.

As to GNSFLRF-NH2 (also called GNSFLRFamide) [GNSFLRF-NH2], the “EC50, GTPγS assay” value with CEGPCR3 stood at 7900 nM. Moreover, the IC50 with CEGPCR4 was 60000 to 900000 nM.

As for GLGPRPLRF-NH2 […-NH2 (AF9)], in test [1], the AF9-induced [35S]GTPγS binding, cells kept at 37° C. (third of three experiments; no stimulation in the other two) is 1.4 fold; the AF9-induced [35S]GTPγS binding, cooling (28° C.) protocol was 2.6 fold; the EC50, GTPγS assay was 207 nM.

In the case of GGPQGPLRF-NH2 [GGPQGPLRF-NH2], the “EC50, GTPγS assay” value with CEGPCR3 amounted to 152 nM. The molecule further displayed a half-inhibitory concentration (IC50) in the test with CEGPCR4 of 50000 to 500000 nM.

For the molecule SVPGVLRF-NH2 [SVPGVLRF-NH2], the “EC50, [35S]GTPγS assay” value with CEGPCR16 came out at 64 nM. In the test with CEGPCR4, the IC50 lay within 0.5 to 10 nM.
